Laboratory results published in article PMC12661439.

Experiments:
[1] = molecular target: HaloTag-AtCRY2(D387A) (Arabidopsis thaliana); assay: photon counting histogram (PCH) analysis (fluorescence fluctuation spectroscopy); light state: the same living HEK293T cells measured at once after 5 min of blue light (about 6 mW/cm^2 at the sample plane, 450-490 nm), one 30 s measurement a cell; HaloTag-JF646 fusions; brightness relative to the monomeric standard, corrected for 70% labelling; oligomer percent from a monomer-dimer (VfAuLOV) or monomer-tetramer (AtCRY2) model
[2] = molecular target: HaloTag-AtCRY2(D387A) (Arabidopsis thaliana); assay: photon counting histogram (PCH) analysis (fluorescence fluctuation spectroscopy); dark state; HaloTag fusions labelled with 200 nM JF646 in living HEK293T cells, UBC promoter, protomer about 50-1,700 nM; single-point measurement of 30 s, 20 kHz binning, 15 ns dead time, ambient temperature (22-23°C); brightness relative to the monomeric HaloTag standard and corrected for 70% labelling; population average; oligomer percent from a monomer-dimer (VfAuLOV) or monomer-tetramer (AtCRY2) model
[3] = molecular target: HaloTag-AtCRY2(R439L) (Arabidopsis thaliana); assay: photon counting histogram (PCH) analysis (fluorescence fluctuation spectroscopy); light state: the same living HEK293T cells measured at once after 5 min of blue light (about 6 mW/cm^2 at the sample plane, 450-490 nm), one 30 s measurement a cell; HaloTag-JF646 fusions; brightness relative to the monomeric standard, corrected for 70% labelling; oligomer percent from a monomer-dimer (VfAuLOV) or monomer-tetramer (AtCRY2) model
[4] = molecular target: HaloTag-AtCRY2(R439L) (Arabidopsis thaliana); assay: photon counting histogram (PCH) analysis (fluorescence fluctuation spectroscopy); dark state; HaloTag fusions labelled with 200 nM JF646 in living HEK293T cells, UBC promoter, protomer about 50-1,700 nM; single-point measurement of 30 s, 20 kHz binning, 15 ns dead time, ambient temperature (22-23°C); brightness relative to the monomeric HaloTag standard and corrected for 70% labelling; population average; oligomer percent from a monomer-dimer (VfAuLOV) or monomer-tetramer (AtCRY2) model
[5] = molecular target: HaloTag-AtCRY2(W374A) (Arabidopsis thaliana); assay: photon counting histogram (PCH) analysis (fluorescence fluctuation spectroscopy); light state: the same living HEK293T cells measured at once after 5 min of blue light (about 6 mW/cm^2 at the sample plane, 450-490 nm), one 30 s measurement a cell; HaloTag-JF646 fusions; brightness relative to the monomeric standard, corrected for 70% labelling; oligomer percent from a monomer-dimer (VfAuLOV) or monomer-tetramer (AtCRY2) model
[6] = molecular target: HaloTag-AtCRY2(W374A) (Arabidopsis thaliana); assay: photon counting histogram (PCH) analysis (fluorescence fluctuation spectroscopy); dark state; HaloTag fusions labelled with 200 nM JF646 in living HEK293T cells, UBC promoter, protomer about 50-1,700 nM; single-point measurement of 30 s, 20 kHz binning, 15 ns dead time, ambient temperature (22-23°C); brightness relative to the monomeric HaloTag standard and corrected for 70% labelling; population average; oligomer percent from a monomer-dimer (VfAuLOV) or monomer-tetramer (AtCRY2) model
[7] = molecular target: HaloTag-AtCRY2: photolyase homology region of cryptochrome 2 from Arabidopsis thaliana fused to HaloTag (Arabidopsis thaliana); assay: photon counting histogram (PCH) analysis (fluorescence fluctuation spectroscopy); light state: the same living HEK293T cells measured at once after 5 min of blue light (about 6 mW/cm^2 at the sample plane, 450-490 nm), one 30 s measurement a cell; HaloTag-JF646 fusions; brightness relative to the monomeric standard, corrected for 70% labelling; oligomer percent from a monomer-dimer (VfAuLOV) or monomer-tetramer (AtCRY2) model
[8] = molecular target: HaloTag-AtCRY2: photolyase homology region of cryptochrome 2 from Arabidopsis thaliana fused to HaloTag (Arabidopsis thaliana); assay: photon counting histogram (PCH) analysis (fluorescence fluctuation spectroscopy); dark state; HaloTag fusions labelled with 200 nM JF646 in living HEK293T cells, UBC promoter, protomer about 50-1,700 nM; single-point measurement of 30 s, 20 kHz binning, 15 ns dead time, ambient temperature (22-23°C); brightness relative to the monomeric HaloTag standard and corrected for 70% labelling; population average; oligomer percent from a monomer-dimer (VfAuLOV) or monomer-tetramer (AtCRY2) model
[9] = molecular target: HaloTag-AtCRY2: photolyase homology region of cryptochrome 2 from Arabidopsis thaliana fused to HaloTag (Arabidopsis thaliana); assay: photon counting histogram (PCH) analysis (fluorescence fluctuation spectroscopy); dissociation kinetics in living HEK293T cells: relative brightness measured at times after a 5-min exposure to blue light was turned off, each measurement 30 s; averaged curves fitted with a single-exponential decay; half-life = ln2 x lifetime
[10] = molecular target: HaloTag-HsCRY2: human CRY2 photolyase homology region fused to HaloTag (human); assay: photon counting histogram (PCH) analysis (fluorescence fluctuation spectroscopy); light state: the same living HEK293T cells measured at once after 5 min of blue light (about 6 mW/cm^2 at the sample plane, 450-490 nm), one 30 s measurement a cell; HaloTag-JF646 fusions; brightness relative to the monomeric standard, corrected for 70% labelling; oligomer percent from a monomer-dimer (VfAuLOV) or monomer-tetramer (AtCRY2) model
[11] = molecular target: HaloTag-HsCRY2: human CRY2 photolyase homology region fused to HaloTag (human); assay: photon counting histogram (PCH) analysis (fluorescence fluctuation spectroscopy); dark state; HaloTag fusions labelled with 200 nM JF646 in living HEK293T cells, UBC promoter, protomer about 50-1,700 nM; single-point measurement of 30 s, 20 kHz binning, 15 ns dead time, ambient temperature (22-23°C); brightness relative to the monomeric HaloTag standard and corrected for 70% labelling; population average; oligomer percent from a monomer-dimer (VfAuLOV) or monomer-tetramer (AtCRY2) model
[12] = molecular target: HaloTag-VfAuLOV: light-oxygen-voltage (LOV) domain of Vaucheria frigida Aurochrome1 fused to HaloTag (Vaucheria frigida); assay: photon counting histogram (PCH) analysis (fluorescence fluctuation spectroscopy); light state: the same living HEK293T cells measured at once after 5 min of blue light (about 6 mW/cm^2 at the sample plane, 450-490 nm), one 30 s measurement a cell; HaloTag-JF646 fusions; brightness relative to the monomeric standard, corrected for 70% labelling; oligomer percent from a monomer-dimer (VfAuLOV) or monomer-tetramer (AtCRY2) model
[13] = molecular target: HaloTag-VfAuLOV: light-oxygen-voltage (LOV) domain of Vaucheria frigida Aurochrome1 fused to HaloTag (Vaucheria frigida); assay: photon counting histogram (PCH) analysis (fluorescence fluctuation spectroscopy); dark state; HaloTag fusions labelled with 200 nM JF646 in living HEK293T cells, UBC promoter, protomer about 50-1,700 nM; single-point measurement of 30 s, 20 kHz binning, 15 ns dead time, ambient temperature (22-23°C); brightness relative to the monomeric HaloTag standard and corrected for 70% labelling; population average; oligomer percent from a monomer-dimer (VfAuLOV) or monomer-tetramer (AtCRY2) model
[14] = molecular target: HaloTag-VfAuLOV: light-oxygen-voltage (LOV) domain of Vaucheria frigida Aurochrome1 fused to HaloTag (Vaucheria frigida); assay: photon counting histogram (PCH) analysis (fluorescence fluctuation spectroscopy); dissociation kinetics in living HEK293T cells: relative brightness measured at times after a 5-min exposure to blue light was turned off, each measurement 30 s; averaged curves fitted with a single-exponential decay; half-life = ln2 x lifetime
[15] = molecular target: HaloTag-bZip-VfAuLOV: VfAuLOV with the basic residues and leucine zipper domain of Vaucheria frigida Aureochrome1, fused to HaloTag (Vaucheria frigida); assay: photon counting histogram (PCH) analysis (fluorescence fluctuation spectroscopy); light state: the same living HEK293T cells measured at once after 5 min of blue light (about 6 mW/cm^2 at the sample plane, 450-490 nm), one 30 s measurement a cell; HaloTag-JF646 fusions; brightness relative to the monomeric standard, corrected for 70% labelling; oligomer percent from a monomer-dimer (VfAuLOV) or monomer-tetramer (AtCRY2) model
[16] = molecular target: HaloTag-bZip-VfAuLOV: VfAuLOV with the basic residues and leucine zipper domain of Vaucheria frigida Aureochrome1, fused to HaloTag (Vaucheria frigida); assay: photon counting histogram (PCH) analysis (fluorescence fluctuation spectroscopy); dark state; HaloTag fusions labelled with 200 nM JF646 in living HEK293T cells, UBC promoter, protomer about 50-1,700 nM; single-point measurement of 30 s, 20 kHz binning, 15 ns dead time, ambient temperature (22-23°C); brightness relative to the monomeric HaloTag standard and corrected for 70% labelling; population average; oligomer percent from a monomer-dimer (VfAuLOV) or monomer-tetramer (AtCRY2) model
[17] = molecular target: HaloTag-bZip-VfAuLOV: VfAuLOV with the basic residues and leucine zipper domain of Vaucheria frigida Aureochrome1, fused to HaloTag (Vaucheria frigida); assay: photon counting histogram (PCH) analysis (fluorescence fluctuation spectroscopy); dissociation kinetics in living HEK293T cells: relative brightness measured at times after a 5-min exposure to blue light was turned off, each measurement 30 s; averaged curves fitted with a single-exponential decay; half-life = ln2 x lifetime

HaloTag-AtCRY2(D387A) (domain or fragment)
oligomer percentage (tetramer fraction, monomer-tetramer model) [1]: < 1% | relative brightness (corrected; monomer = 1, tetramer = 4) [1]: 1.1 | oligomer percentage (tetramer fraction, monomer-tetramer model) [2]: < 1% | relative brightness (corrected; monomer = 1, tetramer = 4) [2]: 1.1

HaloTag-AtCRY2(R439L) (domain or fragment)
oligomer percentage (tetramer fraction, monomer-tetramer model) [3]: < 1% | relative brightness (corrected; monomer = 1, tetramer = 4) [3]: 1.1 | oligomer percentage (tetramer fraction, monomer-tetramer model) [4]: < 1% | relative brightness (corrected; monomer = 1, tetramer = 4) [4]: 1.1

HaloTag-AtCRY2(W374A) (domain or fragment)
oligomer percentage (tetramer fraction, monomer-tetramer model) [5]: 20% | relative brightness (corrected; monomer = 1, tetramer = 4) [5]: 2.5 | oligomer percentage (tetramer fraction, monomer-tetramer model) [6]: 5% | relative brightness (corrected; monomer = 1, tetramer = 4) [6]: 1.5

HaloTag-AtCRY2: photolyase homology region of cryptochrome 2 from Arabidopsis thaliana fused to HaloTag (domain or fragment)
oligomer percentage (tetramer fraction, monomer-tetramer model) [7]: 27% | relative brightness (corrected; monomer = 1, tetramer = 4) [7]: 2.8 | stoichiometry N [7]: 4 | oligomer percentage (tetramer fraction, monomer-tetramer model) [8]: < 1% | oligomer percentage (tetramer fraction, monomer-tetramer model; only data above 500 nM) [8]: 1.8% | relative brightness (corrected; monomer = 1, tetramer = 4) [8]: 1.1 | relative brightness (corrected; only data above 500 nM) [8]: 1.2 | dissociation half-life [9]: 4.29 min

HaloTag-HsCRY2: human CRY2 photolyase homology region fused to HaloTag (domain or fragment)
relative brightness (corrected; monomer = 1) [10]: 1.3 | relative brightness (corrected; monomer = 1) [11]: 1.2

HaloTag-VfAuLOV: light-oxygen-voltage (LOV) domain of Vaucheria frigida Aurochrome1 fused to HaloTag (domain or fragment)
oligomer percentage (dimer fraction, monomer-dimer model) [12]: 100% | relative brightness (corrected; monomer = 1, dimer = 2) [12]: 2 | stoichiometry N [12]: 2 | oligomer percentage (dimer fraction, monomer-dimer model) [13]: 18% | relative brightness (corrected; monomer = 1, dimer = 2) [13]: 1.3 | dissociation half-life [14]: 8.73 min

HaloTag-bZip-VfAuLOV: VfAuLOV with the basic residues and leucine zipper domain of Vaucheria frigida Aureochrome1, fused to HaloTag (domain or fragment)
oligomer percentage (dimer fraction, monomer-dimer model) [15]: 67% | relative brightness (corrected; monomer = 1, dimer = 2) [15]: 1.8 | stoichiometry N [15]: 2 | oligomer percentage (dimer fraction, monomer-dimer model) [16]: 33% | relative brightness (corrected; monomer = 1, dimer = 2) [16]: 1.5 | dissociation half-life [17]: 6.89 min
